Reference: US20050059087A1 (Amgen, published 2005)
No end group written: not given here.

Experiments:
[1] = biological target: T1, EGFRvIII, full length, expressed by transfected cells (NR6 M, H1477, 300.19/EGFRvIII) (human, UniProt P00533 298-1210); experiment: FACS on NR6 M cells, antibody at 0.25 µg/ml with SS Alexa anti-human IgG Fab, 37° C. for 1 hr, no glutathione (total cell-associated fluorescence)
T1 construct: Also used here for Western blots of H1477 lysate; also called native EGFRvIII; mutant EGFR
Description: XenoMax derived IgG1 recombinant antibodies were expressed, purified and quantitated as described previously. Antibodies were further assayed for their ability to internalize the EGFRvIII receptor in NR6 M cells. […] The cells were washed with cold 10% FCS in PBS and secondary antibody (SS Alexa antihuman IgG Fab) at 3 μg/ml Fab was added and incubated for 7 mins on ice. The cells were washed with cold 10% FCS in PBS once and then resuspended in cold media. Next, two sets of the triplicate were incubated at 37° C. and the remaining set was incubated at 4° C. for 1 hr. After that the cells incubated at 4° C. and one set of the cells incubated at 37° C. were treated with glutathione (as previously mentioned) for 1 hr on ice. Then the cells were washed and resuspended in 100 μl of cold 1% FCS in PBS and analyzed by FACS. The % internalization was calculated from the geometric mean obtained from the FACS analysis [(mean at 37° C. with glutathione—mean at 4° C. with glutathione)/(mean at 37° C. without glutathione—mean at 4 C with glutathione)].

[2] = biological target: T1, EGFRvIII, full length, expressed by …; experiment: cell-based or functional assay
[3] = biological target: T2, EGFRvIII-rabbit Fc fusion protein (human; rabbit, UniProt P00533 298-645); experiment: ELISA, minilipofection supernatant titrated 1:2 on EGFRvIII-Rab Ig Fc fusion protein (1.5 ug/ml)
T2 construct: made in 293F cells; also called EGFRvIII-RbFc; EGFRvIII-Rab Ig Fc fusion protein; not shown: rabbit IgG Hinge-CH2-CH3 (721 bp fragment)
Description: The secretion ELISA tests were performed as follows. […] The plates were washed five times with dH₂O. Recombinant antibodies were titrated 1:2 for 7 wells from the undiluted minilipofection supernatant. The plates were washed five times with dH₂O. A goat anti-human IgG Fc-specific HRP-conjugated antibody was added at a final concentration of 1 μg/mL for 1 hour at RT for the secretion plates and binding plates detected with 1 μg/ml Rb anti Hu Fc for 1 hour at room temperature. The plates were washed five times with dH₂O. The plates were developed with the addition of TMB for 30 minutes and the ELISA was stopped by the addition of 1 M phosphoric acid. Each ELISA plate was analyzed to determine the optical density of each well at 450 nm.

[4] = biological target: T3, EGFRvIII peptide-OVA (PEP3 14-mer conjugated to ovalbumin) (human, also: conjugated to OVA, chemistry not given here); experiment: XenoMax screening
T3 construct: also called VIII-pep-OVA; muEGFr
T3 peptide: LEEKKGNYVVTDHC

[5] = biological target: T4, Pep-3, NH2-LEEKKGNYVVTDHG-OH (human); experiment: Biacore 2000 SPR, mAb immobilised, pep-3 analyte
T4 construct: Free peptide used in Biacore and KinExA (MW 1590 Da)
T4 peptide: H-LEEKKGNYVVTDHG-OH
Description: The first step in these examples involved the immobilization of 5,600 resonance units (RU) to 8,000 RU of each mAb tested to one flow cell (Fc) of a CM5 sensor chip using standard EDC/NHS coupling chemistry. […] Three CM5 sensor chips were used in total to immobilize all mutant mAbs with a unique mAb immobilized to each flow cell. […] Biacore 2000 optical biosensors were used for all studies.

B1: SC-EGFRvIII-XG2-150 (antibody, human IgG1, V domains shown)
VH: QVQLQQSGPGLVKPSQTLSLTCAISGDSVSSYSSAWNWIRQSPSRGLEWLGRAYHRSRWYYEYAVSVKSRINITPDTSKNQFSLQLNSVTPEDTAVYYCARGSRFDYWGQGTLVTVSS
VL: DIVMTQTPLSSPVTLGQPASISCRSSQSLVHRDGNTYLSWLQQRPGQPPRLLIYKISNRFSGVPDRFSGSGAGTDFTLKISRVEAEDVGIYFCMHTTQFPWTFGQGTRVEIK
notes: XenoMax-derived from an XMG2 mouse; also called sc150; 182D5
With B1 the “FACS Geometric mean (without glutathione, 37° C.)” value [1] was 20.3 geometric mean, the “% internalization” value [2] was 20% and the “FACS Geometric mean, With glutathione 4° C.” value [2] was 4.66 geometric mean. The “FACS Geometric mean, With glutathione 37° C.” value [2] was 7.78 geometric mean and the “Titer, antigen binding” value [3] was greater than 64 reciprocal dilution.

B2: SC-EGFRvIII-XG2-170 (antibody, human IgG1, V domains shown)
VH: QVQLQQSGPGLVKPSQTLSLTCAISGDSVSSNNAAWNWIRQSPARGLEWLGRTYYRSKWYNDYVVSVKSRITINPDTSKNQFSLQLNSVTPEDTAVYYCVRATAFDYWGQGTLVTVSS
VL: AIVLTQTPLSSPVTLGQPASISCRSSQSLVHRDGNTYLSWLQQRPGQPPRLLIYKISNRFSGVPDRFSGSGAGTDFTLKISRVEPDDVGVYYCMHTTQLPWTFGQGTKVEIK
notes: XenoMax-derived from an XMG2 mouse; also called SC170; sc170
With B2 the “FACS Geometric mean (without glutathione, 37° C.)” value [1] was 20 geometric mean, the “% internalization” value [2] was 20.1% and the “FACS Geometric mean, With glutathione 4° C.” value [2] was 4.67 geometric mean. The “FACS Geometric mean, With glutathione 37° C.” value [2] was 7.75 geometric mean and the “Titer, antigen binding” value [3] was greater than 64 reciprocal dilution.

B3: SC-EGFRvIII-XG1-318 (antibody, human IgG1, V domains shown)
VH: QVQLVESGGGVVQPGRSLRLSCVASGFTLSSYGMHWVRQAPGKGLEWVAVTSYDGSKKDYADSVKGRFTISRDNSKNTLYLQMNSLRAEDTAVYYCVSEGYCDSSSCYKYYYYGMDVWGQGTTVTVSS
VL: DIVMTQSPLSLPVTPGEPASISCRSSQSLLYRNGNNYLDWYLQRPGQSPQLLIYLGSNRASGVPDRFSGSGSGTDFTLKISRVEAEDVGVYYCMQALQTPRTFGQGTKVEIK
notes: XenoMax-derived; also called 141A10
With B3 the “Titer, antigen binding” value [3] was 64 reciprocal dilution.

B4: SC-EGFRvIII-XG1-211 (antibody, V domains shown)
VH: QVQLVESGGGVVQPGRSLRLSCVASGFTLSSYGMHWVRQAPGKGLEWVAVTSYDGSKKDYADSAKGRFTISRDNSKNTLYLQMNSLRAEDTAVYYCVSEGYCSSSSCYKYYYYGMDVWGQGTTVTVSS
VL: DIVMTQSPLSLPVTPGEPASISCRSSQSLLYRNGNNYLDWYLQRPGQSPQLLIYLGSNRASGVPDRFSGSGSGTDFTLKISRVEAEDVGVYYCMQALQTPRTFGQGTKVEIK
notes: also called SC211; sc211
In the case of B4, the “FACS Geometric mean (without glutathione, 37° C.)” value [1] is reported as 20.8 geometric mean, the “% internalization” value [2] is reported as 21.6% and the “FACS Geometric mean, With glutathione 4° C.” value [2] is reported as 4.78 geometric mean. For the same binder, the “FACS Geometric mean, With glutathione 37° C.” value [2] was 8.23 geometric mean and the “Titer, antigen binding” value [3] was greater than 64 reciprocal dilution.

B5: SC-EGFRvIII-XG1-342 (antibody, human IgG1, V domains shown)
VH: QVQLVESGGGVVQPGRSLRLSCVASGFTLSSYGMHWVRQAPGKGLEWVAVTSYDGSKKDYADSVKGRFTISRDNSKNTLYLQMNSLRAEDTAVYYCVSEGYCDSTSCYKYYYYGMDVWGQGTTVTVSS
VL: DIVMTQSPLSLPVTPGEPASISCRSSQSLLYRNGNNYLDWYLQRPGQSPQLLIYLGSNRASGVPDRFSGSGSGTDFTLKISRVEAEDVGVYYCMQALQTPRTFGQGTKVEIK
notes: XenoMax-derived; also called 124D4
For B5, the “Titer, antigen binding” value [3] was greater than 64 reciprocal dilution.

B6: SC-EGFRvIII-XG1-333 (antibody, human IgG1, V domains shown)
VH: QVQLVESGGGVVQPGRSLRLSCVASGFTLSSYGMHWVRQALGKGLEWVAVTSYDGSKKDYADSVKGRFTISRDNSKNTLYLQMNSLRAEDTAVYYCVSEGYCDSTSCYKYYYYGMDVWGQGTTVTVSS
VL: DIVMTQSPLSLPVTPGEPASISCRSSQSLLYRNGNNYLDWYLQRPGQSPQLLIYLGSNRASGVPDRFSGSGSGTDFTLKISRVEAEDVGVYYCMQALQTPRTFGQGTKVEIK
notes: XenoMax-derived
With B6 the “Titer, antigen binding” value [3] was greater than 64 reciprocal dilution.

B7: SC-EGFRvIII-XG1-123/124 (antibody, human IgG1, V domains shown)
VH: QVQLVESGGGVVQPGRSLRLSCAASGFTLSSYGMHWVRQAPGKGLEWVAVMSYDGSKEDYADSVKGRFTISRDNSENTLYLQMNSLRAEDTAVYYCVSEGYCSSRSCYKYYYYGMDVWGQGTTVTVSS
VL: DIVMTQSPLSLPVTPGEPASISCRSSQSLLYRNGNNYLDWYLQKPGQSPQLLIYLGSNRASGVPDRFSGSGSGTDFTLNISRVEAEDVGHYYCMQALQTPRTFGQGTKVEIK
notes: also called 129A7
For B7, the “Titer, antigen binding” value [3] was greater than 64 reciprocal dilution.

B8: SC-EGFRvIII-XG1-250 (antibody, V domains shown)
VH: EGQLLESGGGWVQPGESLRLSCAASGFTFSSYAMSWVRQAPGKGLEWVSAISGSGGSTNYADSVKGRFTISRDNSKNTLYLQVNSLRVEDTAVYYCAGSSGWSEYWGQGTLVTVSS
VL: DIQMTQSPSSLSASVGDSVTITCRTSQGIRKNLGWYQQKPGKAPKRLIYAASSLQSGVPSRFSGSGSGTEFTLTISRLQPEDFATYYCLQHHSYPLTFGGGTRVEIR
notes: also called SC250; sc250
B8 was tested, and the binding result [4] was “binds”, the “FACS Geometric mean (without glutathione, 37° C.)” value [1] was 24.1 geometric mean and the “% internalization” value [2] was 16.7%. The “FACS Geometric mean, With glutathione 4° C.” value [2] was 4.84 geometric mean, the “FACS Geometric mean, With glutathione 37° C.” value [2] was 8.07 geometric mean and the “Titer, antigen binding” value [3] was greater than 64 reciprocal dilution.

B9: 13.1.2 variant L99H-9.2 (antibody, V domains shown)
VH: QVQLVESGGGVVQPGRSLRLSCAASGFTFSSYGMHWVRQAPGKGLEWVAVIWYDGSNKYYVDSVKGRFTISRDNSKNTLYLQMNSLRAEDTAVYYCARDGWQQLAPFDYWGQGTLVTVSS
VL: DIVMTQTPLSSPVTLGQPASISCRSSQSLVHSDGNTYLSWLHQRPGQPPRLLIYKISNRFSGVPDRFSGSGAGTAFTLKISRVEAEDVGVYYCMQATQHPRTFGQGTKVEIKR
notes: also called Leu99His; 99His
B9 was tested, and the Kd [5] was 395 nM, the koff [5] was 0.033 s⁻¹ and the kon [5] was 83400 M⁻¹ s⁻¹.

B10: 13.1.2 variant N35G-3.1 (antibody, V domains shown)
VH: QVQLVESGGGVVQPGRSLRLSCAASGFTFSSYGMHWVRQAPGKGLEWVAVIWYDGSNKYYVDSVKGRFTISRDNSKNTLYLQMNSLRAEDTAVYYCARDGWQQLAPFDYWGQGTLVTVSS
VL: DIVMTQTPLSSPVTLGQPASISCRSSQSLVHSDGGTYLSWLHQRPGQPPRLLIYKISNRFSGVPDRFSGSGAGTAFTLKISRVEAEDVGVYYCMQATQLPRTFGQGTKVEIKR
notes: also called Asn35Gly; 35Gly
B10 was tested, and the Kd [5] was 204 nM, the koff [5] was 0.03 s⁻¹ and the kon [5] was 150000 M⁻¹ s⁻¹.

B11: 13.1.2 variant L217Q-10.1 (antibody, V domains shown)
VH: QVQLVESGGGVVQPGRSLRLSCAASGFTFSSYGMHWVRQAPGKGLEWVAVIWYDGSNKYYVDSVKGRFTISRDNSKNTLYLQMNSLRAEDTAVYYCARDGWQQQAPFDYWGQGTLVTVSS
VL: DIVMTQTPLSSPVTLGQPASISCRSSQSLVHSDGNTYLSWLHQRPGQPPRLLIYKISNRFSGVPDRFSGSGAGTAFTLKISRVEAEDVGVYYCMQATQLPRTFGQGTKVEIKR
notes: also called Leu217Gln; 217Gln
With B11 the Kd [5] was 92 nM, the koff [5] was 0.019 s⁻¹ and the kon [5] was 204000 M⁻¹ s⁻¹.

B12: 13.1.2 variant L217N-2.1 (antibody, V domains shown)
VH: QVQLVESGGGVVQPGRSLRLSCAASGFTFSSYGMHWVRQAPGKGLEWVAVIWYDGSNKYYVDSVKGRFTISRDNSKNTLYLQMNSLRAEDTAVYYCARDGWQQNAPFDYWGQGTLVTVSS
VL: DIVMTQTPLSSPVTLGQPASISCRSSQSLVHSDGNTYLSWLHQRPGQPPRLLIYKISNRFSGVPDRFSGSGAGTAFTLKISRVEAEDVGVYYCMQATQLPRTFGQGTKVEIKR
notes: also called Leu217Asn; 217Asn
Work on B12 yielded a Kd [5] of 185 nM, a koff [5] of 0.04 s⁻¹ and a kon [5] of 220000 M⁻¹ s⁻¹.

B13: 13.1.2 variant Y172R-1.2 (antibody, V domains shown)
VH: QVQLVESGGGVVQPGRSLRLSCAASGFTFSSYGMHWVRQAPGKGLEWVAVIWYDGSNKRYVDSVKGRFTISRDNSKNTLYLQMNSLRAEDTAVYYCARDGWQQLAPFDYWGQGTLVTVSS
VL: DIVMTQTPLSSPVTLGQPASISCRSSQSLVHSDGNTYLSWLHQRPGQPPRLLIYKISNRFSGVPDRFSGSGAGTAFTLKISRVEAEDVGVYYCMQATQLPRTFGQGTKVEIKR
notes: also called Tyr172Arg; 172Arg
B13 showed a Kd [5] of 927 nM, a koff [5] of 0.076 s⁻¹ and a kon [5] of 82200 M⁻¹ s⁻¹.
